Reference: patent US20120121587A1 (Chugai, published 2012)

T1: Human recombinant AXL-FND1 (GST-FND1), from pET-41b(+) (human, UniProt P30530 225-331)
T1 construct: Expressed in E. coli, purified on Glutathione Sepharose; analyte in all Biacore measurements; GST put first by the usual layout of pET-41; not shown: GST-tag of vector pET-41b(+) (Novagen)
T1 sequence (looked up): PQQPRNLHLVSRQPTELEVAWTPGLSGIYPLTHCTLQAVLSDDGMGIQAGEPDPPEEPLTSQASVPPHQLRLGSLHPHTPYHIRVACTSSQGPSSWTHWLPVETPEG

B1: H9/L1 (antibody, human IgG1, kappa)
heavy: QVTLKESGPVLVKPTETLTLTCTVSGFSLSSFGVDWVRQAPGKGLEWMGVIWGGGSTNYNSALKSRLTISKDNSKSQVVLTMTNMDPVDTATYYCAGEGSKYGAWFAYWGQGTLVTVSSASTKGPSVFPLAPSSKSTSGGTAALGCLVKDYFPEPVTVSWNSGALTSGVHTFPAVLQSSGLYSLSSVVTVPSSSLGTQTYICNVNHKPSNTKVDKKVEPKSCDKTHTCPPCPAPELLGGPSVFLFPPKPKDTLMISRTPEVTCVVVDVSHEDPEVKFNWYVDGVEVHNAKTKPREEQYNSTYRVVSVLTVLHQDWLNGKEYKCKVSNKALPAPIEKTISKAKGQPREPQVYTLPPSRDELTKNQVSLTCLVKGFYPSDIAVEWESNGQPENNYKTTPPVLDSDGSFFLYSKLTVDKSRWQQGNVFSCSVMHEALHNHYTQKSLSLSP
light: DVVMTQSPLSLPVTLGQPASISCQSSQNIVHTNGNTYLEWYQQKPGKAPELLIYKVSNRFSGVPDRFSGSGSGTDFTLKISRVEAEDVGVYYCFQGSHIPFTFGQGTKLEIKRTVAAPSVFIFPPSDEQLKSGTASVVCLLNNFYPREAKVQWKVDNALQSGNSQESVTEQDSKDSTYSLSSTLTLSKADYEKHKVYACEVTHQGLSSPVTKSFNRGEC
B2: H9/L3 (antibody, human IgG1, kappa, V domains shown)
VH: QVTLKESGPVLVKPTETLTLTCTVSGFSLSSFGVDWVRQAPGKGLEWMGVIWGGGSTNYNSALKSRLTISKDNSKSQVVLTMTNMDPVDTATYYCAGEGSKYGAWFAYWGQGTLVTVSS
VL: DVVMTQSPLSLPVTLGQPASISCQSSENIVHTNGNTYLEWYQQKPGKAPELLIYKVSNRFSGVPDRFSGSGSGTDFTLKISRVEAEDVGVYYCFQGSHIPFTFGQGTKLEIKR
B3: H9/L4 (antibody, human IgG1, kappa, V domains shown)
VH: QVTLKESGPVLVKPTETLTLTCTVSGFSLSSFGVDWVRQAPGKGLEWMGVIWGGGSTNYNSALKSRLTISKDNSKSQVVLTMTNMDPVDTATYYCAGEGSKYGAWFAYWGQGTLVTVSS
VL: DVVMTQSPLSLPVTLGQPASISCRSSQNIVHTNGNTYLEWYQQKPGEAPELLIYKVSNRFSGVPDRFSGSGSGTDFTLKISRVEAEDVGVYYCFQGSHIPFTFGQGTKLEIKR
B4: H9/L5 (antibody, human IgG1, kappa, V domains shown)
VH: QVTLKESGPVLVKPTETLTLTCTVSGFSLSSFGVDWVRQAPGKGLEWMGVIWGGGSTNYNSALKSRLTISKDNSKSQVVLTMTNMDPVDTATYYCAGEGSKYGAWFAYWGQGTLVTVSS
VL: DVVMTQSPLSLPVTLGQPASISCRSSQNIVHTNGNTYLEWYQQKPGQAPELLIYKVSNRFSGVPDRFSGSGSGTDFTLKISRVEAEDVGVYYCFQGSHIPFTFGQGTKLEIKR
B5: H9/L10 (antibody, human IgG1, kappa)
heavy: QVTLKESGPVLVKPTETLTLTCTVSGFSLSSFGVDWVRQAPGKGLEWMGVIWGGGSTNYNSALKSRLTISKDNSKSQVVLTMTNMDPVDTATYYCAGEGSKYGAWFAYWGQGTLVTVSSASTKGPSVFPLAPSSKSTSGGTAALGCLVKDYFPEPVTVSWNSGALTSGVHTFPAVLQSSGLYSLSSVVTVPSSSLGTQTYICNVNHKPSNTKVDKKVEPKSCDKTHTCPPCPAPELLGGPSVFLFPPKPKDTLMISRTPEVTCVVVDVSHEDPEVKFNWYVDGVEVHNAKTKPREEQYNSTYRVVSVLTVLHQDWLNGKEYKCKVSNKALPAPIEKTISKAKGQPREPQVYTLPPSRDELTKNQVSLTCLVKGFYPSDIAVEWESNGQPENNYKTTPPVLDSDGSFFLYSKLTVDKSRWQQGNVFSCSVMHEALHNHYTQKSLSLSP
light: DVVMTQSPLSLPVTLGQPASISCRSSQNIVHTNGNTYLEWYQQKPGKAPELLIYKVSNRFSGVPDRFSGSGSGTDFTLKISRVEAEDVGVYYCFQGSHIPFTFGQGTKVEIERTVAAPSVFIFPPSDEQLKSGTASVVCLLNNFYPREAKVQWKVDNALQSGNSQESVTEQDSKDSTYSLSSTLTLSKADYEKHKVYACEVTHQGLSSPVTKSFNRGEC
B6: H9/L11 (antibody, human IgG1, kappa)
heavy: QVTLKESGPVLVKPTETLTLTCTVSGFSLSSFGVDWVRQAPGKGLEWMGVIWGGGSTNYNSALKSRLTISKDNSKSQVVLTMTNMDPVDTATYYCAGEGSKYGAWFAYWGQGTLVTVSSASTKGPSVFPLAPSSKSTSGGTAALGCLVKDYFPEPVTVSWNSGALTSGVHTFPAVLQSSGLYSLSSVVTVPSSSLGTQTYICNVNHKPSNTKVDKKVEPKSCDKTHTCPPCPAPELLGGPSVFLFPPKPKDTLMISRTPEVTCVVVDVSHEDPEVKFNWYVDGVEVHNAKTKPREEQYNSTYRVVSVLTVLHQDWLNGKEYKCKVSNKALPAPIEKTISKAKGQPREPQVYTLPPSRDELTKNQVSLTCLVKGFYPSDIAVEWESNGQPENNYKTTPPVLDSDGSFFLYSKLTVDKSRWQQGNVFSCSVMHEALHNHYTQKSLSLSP
light: DVVMTQSPLSLPVTLGQPASISCQSSQNIVHTNGNTYLEWYQQKPGKAPELLIYKVSNRFSGVPDRFSGSGSGTDFTLKISRVEAEDVGVYYCFQGSHIPFTFGQGTKVEIERTVAAPSVFIFPPSDEQLKSGTASVVCLLNNFYPREAKVQWKVDNALQSGNSQESVTEQDSKDSTYSLSSTLTLSKADYEKHKVYACEVTHQGLSSPVTKSFNRGEC
B7: H9/L12 (antibody, human IgG1, kappa, V domains shown)
VH: QVTLKESGPVLVKPTETLTLTCTVSGFSLSSFGVDWVRQAPGKGLEWMGVIWGGGSTNYNSALKSRLTISKDNSKSQVVLTMTNMDPVDTATYYCAGEGSKYGAWFAYWGQGTLVTVSS
VL: DVVMTQSPLSLPVTLGQPASISCQSSQNIVHTNGNTYLEWYQQKPGEAPELLIYKVSNRFSGVPDRFSGSGSGTDFTLKISRVEAEDVGVYYCFQGSHIPFTFGQGTKVEIER
B8: H9/L13 (antibody, human IgG1, kappa, V domains shown)
VH: QVTLKESGPVLVKPTETLTLTCTVSGFSLSSFGVDWVRQAPGKGLEWMGVIWGGGSTNYNSALKSRLTISKDNSKSQVVLTMTNMDPVDTATYYCAGEGSKYGAWFAYWGQGTLVTVSS
VL: DVVMTQSPLSLPVTLGQPASISCQSSQNIVHTNGNTYLEWYQQKPGQAPELLIYKVSNRFSGVPDRFSGSGSGTDFTLKISRVEAEDVGVYYCFQGSHIPFTFGQGTKVEIER
B9: H9/L25 (antibody, human IgG1, kappa)
heavy: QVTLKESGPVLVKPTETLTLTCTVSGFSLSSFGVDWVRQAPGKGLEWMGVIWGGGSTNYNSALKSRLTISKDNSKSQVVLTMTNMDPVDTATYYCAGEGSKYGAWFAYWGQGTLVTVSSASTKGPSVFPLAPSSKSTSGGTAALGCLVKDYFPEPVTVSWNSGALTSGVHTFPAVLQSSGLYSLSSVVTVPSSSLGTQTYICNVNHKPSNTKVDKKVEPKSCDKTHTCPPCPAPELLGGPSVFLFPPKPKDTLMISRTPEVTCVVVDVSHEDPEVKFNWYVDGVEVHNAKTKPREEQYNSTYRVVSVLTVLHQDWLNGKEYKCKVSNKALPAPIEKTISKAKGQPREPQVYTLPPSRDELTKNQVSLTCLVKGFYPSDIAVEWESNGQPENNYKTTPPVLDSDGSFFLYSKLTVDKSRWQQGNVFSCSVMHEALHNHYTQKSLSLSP
light: DVVMTQSPLSLPVTLGRPASISCRSSQNIVHTNGNTYLEWYQQKPGKAPELLIYKVSNRFSGVPDRFSGSGSGTDFTLKISRVEAEDVGVYYCFQGSHIPFTFGQGTKLEIKRTVAAPSVFIFPPSDEQLKSGTASVVCLLNNFYPREAKVQWKVDNALQSGNSQESVTEQDSKDSTYSLSSTLTLSKADYEKHKVYACEVTHQGLSSPVTKSFNRGEC
B10: H9/L27 (antibody, human IgG1, kappa, V domains shown)
VH: QVTLKESGPVLVKPTETLTLTCTVSGFSLSSFGVDWVRQAPGKGLEWMGVIWGGGSTNYNSALKSRLTISKDNSKSQVVLTMTNMDPVDTATYYCAGEGSKYGAWFAYWGQGTLVTVSS
VL: DVVMTQSPLSLPVTLGQPASISCRSSRNIVHTNGNTYLEWYQQKPGKAPELLIYKVSNRFSGVPDRFSGSGSGTDFTLKISRVEAEDVGVYYCFQGSHIPFTFGQGTKLEIKR
B11: H9/L28 (antibody, human IgG1, kappa, V domains shown)
VH: QVTLKESGPVLVKPTETLTLTCTVSGFSLSSFGVDWVRQAPGKGLEWMGVIWGGGSTNYNSALKSRLTISKDNSKSQVVLTMTNMDPVDTATYYCAGEGSKYGAWFAYWGQGTLVTVSS
VL: DVVMTQSPLSLPVTLGQPASISCRSSQNIVHTNGNTYLEWYQQKPGKAPKLLIYKVSNRFSGVPDRFSGSGSGTDFTLKISRVEAEDVGVYYCFQGSHIPFTFGQGTKLEIKR
B12: H9/L29 (antibody, human IgG1, kappa)
heavy: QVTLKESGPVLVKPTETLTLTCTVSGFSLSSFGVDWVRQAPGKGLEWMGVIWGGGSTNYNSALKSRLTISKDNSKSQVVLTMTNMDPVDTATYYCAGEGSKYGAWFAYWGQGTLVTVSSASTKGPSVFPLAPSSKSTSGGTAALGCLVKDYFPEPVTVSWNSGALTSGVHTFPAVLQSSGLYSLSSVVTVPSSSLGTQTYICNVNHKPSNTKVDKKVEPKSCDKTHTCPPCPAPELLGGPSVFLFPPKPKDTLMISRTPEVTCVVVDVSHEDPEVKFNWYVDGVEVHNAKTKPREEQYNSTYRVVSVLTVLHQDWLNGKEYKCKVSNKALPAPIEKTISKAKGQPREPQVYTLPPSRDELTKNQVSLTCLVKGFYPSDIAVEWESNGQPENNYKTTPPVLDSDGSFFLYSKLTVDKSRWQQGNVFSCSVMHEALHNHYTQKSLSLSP
light: DVVMTQSPLSLPVTLGQPASISCRSSQNIVHTNGNTYLEWYQQKPGKAPELLIYKVSNRFSGVPDRFSGSGSGTDFTLKISRVEAEDVGVYYCFQGSHIPFTFGRGTKLEIKRTVAAPSVFIFPPSDEQLKSGTASVVCLLNNFYPREAKVQWKVDNALQSGNSQESVTEQDSKDSTYSLSSTLTLSKADYEKHKVYACEVTHQGLSSPVTKSFNRGEC
B13: H9/L31 (antibody, human IgG1, kappa)
heavy: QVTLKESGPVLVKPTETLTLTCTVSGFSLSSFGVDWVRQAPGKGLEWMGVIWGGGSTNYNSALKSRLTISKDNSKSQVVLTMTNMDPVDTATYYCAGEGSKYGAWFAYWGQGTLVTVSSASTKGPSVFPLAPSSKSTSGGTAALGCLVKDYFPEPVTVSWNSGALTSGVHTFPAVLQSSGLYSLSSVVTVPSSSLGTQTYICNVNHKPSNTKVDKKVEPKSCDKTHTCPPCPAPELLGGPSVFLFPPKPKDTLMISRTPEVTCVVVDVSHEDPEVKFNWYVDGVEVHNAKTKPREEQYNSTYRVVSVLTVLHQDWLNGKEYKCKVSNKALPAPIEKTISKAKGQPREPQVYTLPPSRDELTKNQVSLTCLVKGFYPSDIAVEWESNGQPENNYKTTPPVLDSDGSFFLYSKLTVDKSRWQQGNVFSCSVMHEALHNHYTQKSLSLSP
light: DVVMTQSPLSLPVTLGQPASISCRSSRNIVHTNGNTYLEWYQQKPGKAPKLLIYKVSNRFSGVPDRFSGSGSGTDFTLKISRVEAEDVGVYYCFQGSHIPFTFGQGTKLEIKRTVAAPSVFIFPPSDEQLKSGTASVVCLLNNFYPREAKVQWKVDNALQSGNSQESVTEQDSKDSTYSLSSTLTLSKADYEKHKVYACEVTHQGLSSPVTKSFNRGEC
B14: H9/L34 (antibody, human IgG1, kappa)
heavy: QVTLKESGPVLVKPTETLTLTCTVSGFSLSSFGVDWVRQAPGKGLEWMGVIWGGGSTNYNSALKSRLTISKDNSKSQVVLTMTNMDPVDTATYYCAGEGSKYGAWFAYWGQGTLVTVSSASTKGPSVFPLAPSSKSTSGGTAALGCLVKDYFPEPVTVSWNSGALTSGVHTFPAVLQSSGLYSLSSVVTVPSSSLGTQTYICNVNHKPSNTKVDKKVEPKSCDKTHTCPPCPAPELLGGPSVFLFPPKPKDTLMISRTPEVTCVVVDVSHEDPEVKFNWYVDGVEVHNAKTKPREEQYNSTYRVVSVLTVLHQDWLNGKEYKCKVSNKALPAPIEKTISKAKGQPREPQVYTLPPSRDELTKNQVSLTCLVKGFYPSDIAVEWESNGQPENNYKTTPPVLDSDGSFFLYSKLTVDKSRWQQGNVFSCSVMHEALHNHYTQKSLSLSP
light: DVVMTQSPLSLPVTLGRPASISCRSSRNIVHTNGNTYLEWYQQKPGKAPKLLIYKVSNRFSGVPDRFSGSGSGTDFTLKISRVEAEDVGVYYCFQGSHIPFTFGQGTKLEIKRTVAAPSVFIFPPSDEQLKSGTASVVCLLNNFYPREAKVQWKVDNALQSGNSQESVTEQDSKDSTYSLSSTLTLSKADYEKHKVYACEVTHQGLSSPVTKSFNRGEC
B15: H9/L35 (antibody, human IgG1, kappa)
heavy: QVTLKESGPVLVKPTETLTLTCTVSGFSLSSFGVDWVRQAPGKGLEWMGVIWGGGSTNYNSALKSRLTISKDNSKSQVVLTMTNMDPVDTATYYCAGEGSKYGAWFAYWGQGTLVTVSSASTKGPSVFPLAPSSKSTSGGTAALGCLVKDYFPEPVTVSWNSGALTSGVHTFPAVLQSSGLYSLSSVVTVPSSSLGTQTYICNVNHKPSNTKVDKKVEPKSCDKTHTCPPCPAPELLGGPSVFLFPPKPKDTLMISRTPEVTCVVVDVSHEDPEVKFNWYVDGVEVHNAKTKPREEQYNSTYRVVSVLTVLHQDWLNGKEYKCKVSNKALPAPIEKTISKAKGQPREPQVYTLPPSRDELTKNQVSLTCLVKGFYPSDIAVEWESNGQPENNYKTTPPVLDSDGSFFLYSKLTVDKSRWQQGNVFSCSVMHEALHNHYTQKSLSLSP
light: DVVMTQSPLSLPVTLGQPASISCRSSRNIVHTNGNTYLEWYQQKPGKAPKLLIYKVSNRFSGVPDRFSGSGSGTDFTLKISRVEAEDVGVYYCFQGSHIPFTFGRGTKLEIKRTVAAPSVFIFPPSDEQLKSGTASVVCLLNNFYPREAKVQWKVDNALQSGNSQESVTEQDSKDSTYSLSSTLTLSKADYEKHKVYACEVTHQGLSSPVTKSFNRGEC
B16: H9/L37 (antibody, human IgG1, kappa)
heavy: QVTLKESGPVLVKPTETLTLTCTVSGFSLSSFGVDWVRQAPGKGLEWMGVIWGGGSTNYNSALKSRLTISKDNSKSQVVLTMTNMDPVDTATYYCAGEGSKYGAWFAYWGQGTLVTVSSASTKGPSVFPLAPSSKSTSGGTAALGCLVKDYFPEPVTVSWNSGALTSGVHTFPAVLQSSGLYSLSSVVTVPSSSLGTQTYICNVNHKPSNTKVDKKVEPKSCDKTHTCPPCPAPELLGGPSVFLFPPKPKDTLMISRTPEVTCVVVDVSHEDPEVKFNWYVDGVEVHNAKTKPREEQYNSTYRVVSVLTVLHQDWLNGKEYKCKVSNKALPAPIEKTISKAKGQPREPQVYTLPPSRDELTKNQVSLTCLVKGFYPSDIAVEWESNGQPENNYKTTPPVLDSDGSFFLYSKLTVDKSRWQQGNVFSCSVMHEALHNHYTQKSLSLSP
light: DVVMTQSPLSLPVTLGRPASISCRSSRNIVHTNGNTYLEWYQQKPGKAPKLLIYKVSNRFSGVPDRFSGSGSGTDFTLKISRVEAEDVGVYYCFQGSHIPFTFGRGTKLEIKRTVAAPSVFIFPPSDEQLKSGTASVVCLLNNFYPREAKVQWKVDNALQSGNSQESVTEQDSKDSTYSLSSTLTLSKADYEKHKVYACEVTHQGLSSPVTKSFNRGEC
B17: H17/L0 (antibody, human IgG1, kappa, V domains shown)
VH: QVTLKESGPVLVKPTETLTLTCTVSGFSLSDFGVDWVRQAPGKGLEWMGVIWGGGSTNYNSALKSRLTISKDNSKSQVVLTMTNMDPVDTATYYCAGEGSKYGAWFAYWGQGTLVTVSS
VL: DVVMTQSPLSLPVTLGQPASISCRSSQNIVHTNGNTYLEWYQQKPGKAPELLIYKVSNRFSGVPDRFSGSGSGTDFTLKISRVEAEDVGVYYCFQGSHIPFTFGQGTKLEIKR
B18: H18/L0 (antibody, human IgG1, kappa, V domains shown)
VH: QVTLKESGPVLVKPTETLTLTCTVSGFSLSEFGVDWVRQAPGKGLEWMGVIWGGGSTNYNSALKSRLTISKDNSKSQVVLTMTNMDPVDTATYYCAGEGSKYGAWFAYWGQGTLVTVSS
VL: DVVMTQSPLSLPVTLGQPASISCRSSQNIVHTNGNTYLEWYQQKPGKAPELLIYKVSNRFSGVPDRFSGSGSGTDFTLKISRVEAEDVGVYYCFQGSHIPFTFGQGTKLEIKR
B19: H19/L0 (antibody, human IgG1, kappa, V domains shown)
VH: QVTLKESGPVLVKPTETLTLTCTVSGFSLSSFGVDWVRQAPGQGLEWMGVIWGGGSTNYNSALKSRLTISKDNSKSQVVLTMTNMDPVDTATYYCAGEGSKYGAWFAYWGQGTLVTVSS
VL: DVVMTQSPLSLPVTLGQPASISCRSSQNIVHTNGNTYLEWYQQKPGKAPELLIYKVSNRFSGVPDRFSGSGSGTDFTLKISRVEAEDVGVYYCFQGSHIPFTFGQGTKLEIKR

Target: T1, Human recombinant AXL-FND1 (GST-FND1), …
Assay: SPR (Biacore T100): antibody captured on Protein A, GST-FND1 as analyte
Protocol: Kinetic analyses of antigen-antibody reactions of humanized AXL antibodies were carried out using Biacore T100 (BIACORE). rec-Protein A (Zymed) (hereinafter, Protein A) was immobilized onto a sensor chip, various antibodies were bound to it, then an antigen as the analyte was flushed to measure the antibody-antigen interaction. Human recombinant AXL-FND1 (prepared in 2-2; hereinafter referred to as GST-FND1) prepared at various concentrations was used as the antigen. From the sensorgrams obtained through the measurements, kinetic parameters, namely binding rate constant kₐ (1/Ms) and dissociation rate constant kd (1/s), were calculated, and Kd (M) was calculated based on these values. Biacore T100 Evaluation Software (BIACORE) was used to calculate each of the parameters.
The sensor chips were produced by immobilizing approximately 3000 RU of Protein A onto CM5 (BIACORE) by amine coupling. Using the produced sensor chip, kinetic analyses were carried out on the interaction between the Protein A-bound antibodies and GST-FND1. HBS-EP+ was used as the running buffer, and the flow rate was set to 30 μL/min. Each antibody was prepared at 1 μg/mL using the running buffer, and was subjected to binding with Protein A for two minutes. GST-FND1 as the analyte was prepared at 0.5 and 2.0 μg/mL using HBS-EP+. Measurements were carried out by first binding the various humanized AXL antibodies, chimeric AXL antibodies, or mouse AXL antibodies of interest to Protein A, then applying an analyte solution to them for a two-minute interaction, and then switching to HBS-EP+ (BIACORE) for a two-minute measurement of the dissociation phase. After completion of measurement of the dissociation phase, 30 μL of 10 mM glycine-HCl (pH 2.0) was used for washing to regenerate the sensor chip. Such binding, dissociation, and regeneration were defined as one cycle of analysis. All experiments were performed at 25° C.
Affinity evaluation of each of the variants by Biacore was carried out by the method of Example 2.

Row | Binder | Kd [nM]
1 | B1 | 2.49
2 | B2 | 2.97
3 | B3 | 2.64
4 | B4 | 2.53
5 | B5 | 2.92
6 | B6 | 2.4
7 | B7 | 2.55
8 | B8 | 2.45
9 | B9 | 3.54
10 | B10 | 3.07
11 | B11 | 3.06
12 | B12 | 3.49
13 | B13 | 2.46
14 | B14 | 2.8
15 | B15 | 2.37
16 | B16 | 2.69
17 | B17 | 3.46
18 | B18 | 4.31
19 | B19 | 2.63
